Drawing on patent US20210347894A1 (JIANGSU HANSOH PHARMACEUTICAL GROUP, published 2021), this text covers Kd for two molecules.

What is called Kd is the free concentration of one partner at which half of the binding sites on the other are occupied at equilibrium, for simple one-to-one binding. High values mean a looser complex, low ones a tighter complex.

The target in experiment [1] is T1, human 4Ig-B7H3 antigen (SinoBiological cat#11188-H08H) (human, UniProt Q5ZPR3 29-461).
T1 construct: Commercial product; The entry as printed is the B7H3 extracellular region (4Ig form) followed by a His-tag; also called Human 41g-B7H3; human B7H3 antigen for detection
T1 sequence: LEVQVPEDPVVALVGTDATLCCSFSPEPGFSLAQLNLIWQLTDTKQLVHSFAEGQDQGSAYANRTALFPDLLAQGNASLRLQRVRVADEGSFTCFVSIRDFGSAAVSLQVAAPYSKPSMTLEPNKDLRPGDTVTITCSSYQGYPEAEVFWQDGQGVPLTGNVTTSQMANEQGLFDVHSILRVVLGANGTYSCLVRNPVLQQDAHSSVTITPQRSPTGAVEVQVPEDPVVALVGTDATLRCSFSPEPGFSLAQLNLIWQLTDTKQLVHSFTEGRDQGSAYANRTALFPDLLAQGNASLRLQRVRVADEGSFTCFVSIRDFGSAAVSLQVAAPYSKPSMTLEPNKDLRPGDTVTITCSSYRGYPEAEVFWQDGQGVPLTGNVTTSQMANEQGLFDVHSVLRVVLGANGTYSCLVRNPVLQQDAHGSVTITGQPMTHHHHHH
Briefly: SPR (Biacore T200), ADC captured on Protein A chip, antigen flowed over, 1:1 Langmuir fit. An excerpt: (§1) A biosensor chip Protein A (Cat.#29127556, GE) was used to affinity capture a certain amount of antibody/ADC to be tested. Series diluted human 2Ig-B7H3 antigen (Cat.#1949-B3-050/CF, R&D) and human 4Ig-B7H3 antigen (Cat.#11188-H08H, Sino Biological) were flowed through the surface of the chip. Real-time reaction signal was detected by using Biacore instrument (Biacore T200, GE) to obtain the association and dissociation curves. After completion of each cycle of dissociation, the biochip was washed and regenerated with glycine-hydrochloric acid regeneration solution (pH 1.5) (Cat.# BR-1003-54, GE). The buffer used in the experiment was HBS-EP buffer solution (pH 7.4) (Cat.# BR-1001-88, GE).
(§2) The experimental data was fitted with BIAevaluation version 4.1 GE software in a (1:1) Langmuir model to obtain affinity values.

The target in experiment [2] is T2, human 2Ig-B7H3 antigen (R&D cat#1949-B3-050/CF) (human, UniProt Q5ZPR3 29-245).
T2 construct: Commercial product; The entry as printed is the B7H3 extracellular region (2Ig form) followed by a His-tag; also called human B7H3 antigen for screening and detection
T2 sequence: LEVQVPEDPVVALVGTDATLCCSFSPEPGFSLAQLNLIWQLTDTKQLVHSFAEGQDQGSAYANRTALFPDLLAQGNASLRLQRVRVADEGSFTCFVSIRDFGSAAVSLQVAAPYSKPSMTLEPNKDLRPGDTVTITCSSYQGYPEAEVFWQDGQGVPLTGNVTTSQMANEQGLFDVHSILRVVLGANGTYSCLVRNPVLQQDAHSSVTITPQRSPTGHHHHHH
Briefly: SPR (Biacore T200), antibody captured on Protein A chip, antigen flowed over, 1:1 Langmuir fit.
Excerpt: as §1, §2
Background: Surface plasmon resonance follows binding to a sensor surface in real time, without labels.

For experiment [3], the target named is T1, human 4Ig-B7H3 antigen (SinoBiological …). The description is as above.
Excerpt: as §1, §2

B1: ADC-2 (antibody 1702DS conjugated with compound 5-A, formula FADC-2, n=7.24) (antibody, human IgG1, lambda)
heavy: not shown
light: DTVVTQEPSFSVSPGGTVTLTCGLSSGSVSTSHYPSWYQQTPGQAPRMLIYNTNTRSSGVPDRFSGSILGNKAALTITGAQADDESDYYCAIHVDRDIWVFGGGTKLTVLGQPKANPTVTLFPPSSEELQANKATLVCLISDFYPGAVTVAWKADGSPVKAGVETTKPSKQSNNKYAASSYLSLTPEQWKSHRSYSCQVTHEGSTVEKTVAPTEC
modifications: linker-drug compound 5-A (maleimide-GGFG-exatecan analog) coupled after TCEP reduction of the antibody's disulfide bonds; average n=7.24 per antibody; positions not given
notes: Antibody-drug conjugate; also called B7H3-ADC
Turning to B1, in experiment [1], binding was characterised by a dissociation constant (Kd) of 7.55 nM.

B2: h1702 antibody (antibody, human IgG1, lambda)
heavy: not shown
light: QTVVTQEPSFSVSPGGTVTLTCGLSSGSVSTSHYPSWYQQTPGQAPRMLIYNTNTRSSGVPDRFSGSILGNKAALTITGAQADDESDYYCAIHVDRDIWVFGGGTKLTVLGQPKANPTVTLFPPSSEELQANKATLVCLISDFYPGAVTVAWKADGSPVKAGVETTKPSKQSNNKYAASSYLSLTPEQWKSHRSYSCQVTHEGSTVEKTVAPTECS
notes: Fully human IgG1/lambda full-length antibody from a phage library, expressed in HEK293E cells; also called B7H3 antibody h1702; anti-B7H3 antibody
As to B2, the Kd in experiment [2] was determined as 797 nM; in experiment [3] it was 8.55 nM.
